Test [1] addresses T1, τ131 (Tfc4), τA subunit of endogenous S. cerevisiae TFIIIC (S. cerevisiae, UniProt P33339 1-1025).
T1 construct: τ131 (Tfc4), subunit of S. cerevisiae TFIIIC, endogenous subunit in the purified complex; Endogenous subunit; source: endogenous, purified from S. cerevisiae strain SC2342 as part of TFIIIC (TAP tag on τ60)
T1 sequence (looked up): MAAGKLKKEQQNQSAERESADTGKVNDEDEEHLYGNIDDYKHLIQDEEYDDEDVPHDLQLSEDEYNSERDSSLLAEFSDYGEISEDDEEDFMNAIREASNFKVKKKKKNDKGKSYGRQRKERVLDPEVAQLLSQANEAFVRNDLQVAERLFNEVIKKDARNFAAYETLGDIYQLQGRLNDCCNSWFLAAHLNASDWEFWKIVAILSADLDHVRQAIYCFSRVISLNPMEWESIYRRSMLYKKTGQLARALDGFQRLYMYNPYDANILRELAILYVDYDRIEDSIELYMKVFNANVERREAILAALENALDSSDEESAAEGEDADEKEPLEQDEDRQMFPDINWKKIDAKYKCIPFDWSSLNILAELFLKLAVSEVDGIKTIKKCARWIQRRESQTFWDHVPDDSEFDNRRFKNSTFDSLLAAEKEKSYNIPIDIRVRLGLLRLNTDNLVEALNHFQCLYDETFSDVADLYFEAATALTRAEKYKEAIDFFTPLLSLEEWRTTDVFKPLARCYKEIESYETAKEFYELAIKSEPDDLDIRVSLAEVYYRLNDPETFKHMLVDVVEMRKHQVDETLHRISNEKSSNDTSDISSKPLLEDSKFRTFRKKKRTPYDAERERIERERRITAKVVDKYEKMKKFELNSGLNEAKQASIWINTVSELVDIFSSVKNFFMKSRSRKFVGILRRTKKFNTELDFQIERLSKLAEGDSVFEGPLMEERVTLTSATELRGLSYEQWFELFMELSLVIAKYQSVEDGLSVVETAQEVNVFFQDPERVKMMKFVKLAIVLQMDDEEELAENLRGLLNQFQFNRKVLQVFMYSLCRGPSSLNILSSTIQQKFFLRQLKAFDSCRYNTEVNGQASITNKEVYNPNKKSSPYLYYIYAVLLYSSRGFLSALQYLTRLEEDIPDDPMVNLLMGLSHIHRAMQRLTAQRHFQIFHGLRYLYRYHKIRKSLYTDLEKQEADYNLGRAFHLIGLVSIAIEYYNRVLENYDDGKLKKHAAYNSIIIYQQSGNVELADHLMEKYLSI
In words: cross-linking; XL-MS: purified endogenous TFIIIC (30 μg, 1 μg/μl) cross-linked with H12/D12 DSS to 2 mM, 40 min at 37 °C; ld-score >25. Particulars: both partners purified.

Test [2] concerns the target T2, τ138 (Tfc3), τB subunit of endogenous S. cerevisiae TFIIIC (S. cerevisiae, UniProt P34111 1-1160).
T2 construct: τ138 (Tfc3), subunit of S. cerevisiae TFIIIC, endogenous subunit in the purified complex; source: endogenous, purified from S. cerevisiae strain SC2342 as part of TFIIIC (TAP tag on τ60)
T2 sequence (looked up): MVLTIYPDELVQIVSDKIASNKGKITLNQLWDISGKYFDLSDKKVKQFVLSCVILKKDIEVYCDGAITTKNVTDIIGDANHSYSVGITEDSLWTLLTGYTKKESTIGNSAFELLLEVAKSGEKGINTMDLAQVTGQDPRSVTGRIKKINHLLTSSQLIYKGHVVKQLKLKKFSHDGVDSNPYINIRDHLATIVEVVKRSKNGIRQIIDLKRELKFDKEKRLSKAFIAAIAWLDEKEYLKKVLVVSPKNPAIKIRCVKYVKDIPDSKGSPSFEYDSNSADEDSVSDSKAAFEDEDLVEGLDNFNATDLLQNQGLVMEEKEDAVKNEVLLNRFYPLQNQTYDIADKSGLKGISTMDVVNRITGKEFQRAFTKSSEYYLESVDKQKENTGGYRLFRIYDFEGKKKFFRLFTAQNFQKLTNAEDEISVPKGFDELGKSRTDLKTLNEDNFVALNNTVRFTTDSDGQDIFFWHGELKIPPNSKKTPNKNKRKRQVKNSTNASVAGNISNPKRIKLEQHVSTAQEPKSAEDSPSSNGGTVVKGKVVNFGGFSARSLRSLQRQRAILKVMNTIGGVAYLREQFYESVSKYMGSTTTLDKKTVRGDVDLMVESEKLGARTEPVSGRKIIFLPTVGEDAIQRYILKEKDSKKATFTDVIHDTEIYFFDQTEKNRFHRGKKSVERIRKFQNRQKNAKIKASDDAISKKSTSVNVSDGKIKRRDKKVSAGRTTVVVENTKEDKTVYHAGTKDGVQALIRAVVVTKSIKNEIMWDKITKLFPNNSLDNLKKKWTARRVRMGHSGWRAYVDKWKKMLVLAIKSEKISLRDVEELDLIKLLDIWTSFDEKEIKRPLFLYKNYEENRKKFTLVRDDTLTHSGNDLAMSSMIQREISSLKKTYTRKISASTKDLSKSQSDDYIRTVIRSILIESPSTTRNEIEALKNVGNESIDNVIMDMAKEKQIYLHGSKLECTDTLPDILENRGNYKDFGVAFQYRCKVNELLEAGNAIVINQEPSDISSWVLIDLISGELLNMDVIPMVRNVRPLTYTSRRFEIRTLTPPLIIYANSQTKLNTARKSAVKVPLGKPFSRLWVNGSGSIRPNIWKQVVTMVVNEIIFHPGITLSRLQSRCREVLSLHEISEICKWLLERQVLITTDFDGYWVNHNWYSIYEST
The description is as above. To be noted: both partners purified.

B1: τ95 (Tfc1), τA subunit of endogenous S. cerevisiae TFIIIC (natural protein, UniProt P32367 1-649, looked up)
chain: MPVEEPLATLSSIPDSSADQAPPLIADEFTLDLPRIPSLELPLNVSTKHSSIQKAIKMCGGIEKVKEAFKEHGPIESQHGLQLYLNDDTDSDGSKSYFNEHPVIGKRVPFRDESVILKVTMPKGTLSKNNNSVKDSIKSLKDSNKLRVTPVSIVDNTIKFREMSDFQIKLDNVPSAREFKSSFGSLEWNNFKSFVNSVPDNDSQPQENIGNLILDRSVKIPSTDFQLPPPPKLSMVGFPLLYKYKANPFAKKKKNGVTEVKGTYIKNYQLFVHDLSDKTVIPSQAHEQVLYDFEVAKKTKVYPGTKSDSKFYESLEECLKILRELFARRPIWVKRHLDGIVPKKIHHTMKIALALISYRFTMGPWRNTYIKFGIDPRSSVEYAQYQTEYFKIERKLLSSPIVKKNVPKPPPLVFESDTPGGIDSRFKFDGKRIPWYLMLQIDLLIGEPNIAEVFHNVEYLDKANELTGWFKELDLVKIRRIVKYELGCMVQGNYEYNKYKLKYFKTMLFVKESMVPENKNSEEGMGVNTNKDADGDINMDAGSQMSSNAIEEDKGIAAGDDFDDNGAITEEPDDAALENEEMDTDQNLKVPASIDDDVDDVDADEEEQESFDVKTASFQDIINKIAKLDPKTAETMKSELKGFVDEVDL
notes: τ95 (Tfc1), subunit of S. cerevisiae TFIIIC, endogenous subunit in the purified complex; source: endogenous, purified from S. cerevisiae strain SC2342 as part of TFIIIC (TAP tag on τ60)
Regarding B1, the binding result in test [1] and in test [2] was “binds” each time.

These data come from paper PMC4490372, “Architecture of TFIIIC and its role in RNA polymerase III pre-initiation complex assembly” (Nature Communications, 2015).
